Measurements from patent US20260125455A1 (CLEVELAND CLINIC FOUNDATION, published 2026).

Tests used:
[1] = molecular target: T1, human complement protein C6 (human, UniProt P13671 22-934); test: ELISA, C6-coated wells
T1 construct: also called human C6; C6 antigen
Experimental: The binding of the purified chimeric molecules, MoC601 HuG4K and MoC601 HuG1KFab, was also confirmed by ELISA, where the anti-human IgG (Fab-specific) secondary reagent was used. The control mouse antibody bound as previously (EC₅₀ 0.11 nM). The EC₅₀ for purified MoC601 HuG4K (0.27 nM) was similar to that obtained for the MoC601 HuG4K supernatant sample above. […] The EC₅₀ value for the Fab molecule (0.48 nM) was higher than for the antibody, which would be expected since the Fab is unable to bind bivalently to the antigen on the well. A C6-binding assay was also set up on the Octet RED384 instrument. […] However, MoC601 MoG1K could be stably loaded onto anti-mouse Fc (AMC) biosensors. Concentrations of the mouse and chimeric antibodies were adjusted to give similar levels of loading on to the AMC and […]

[2] = molecular target: T1, human complement protein C6; test: ELISA, C6-coated wells, same experiment as the chimeric supernatants
Experimental: The chimeric molecules, MoC601 HuG4K and MoC601 HuG1KFab, were tested for C6 binding in the form of expression supernatants. In this experiment, the human molecules were detected with an HRP-conjugated goat anti-human kappa chain reagent, which gave relative low signals. However, the binding of both chimeric molecules to C6 was confirmed. The EC₅₀ value for MoC601 HuG4K (0.43 nM) was higher than that of the mouse antibody (0.07 nM), though this was lower than in previous experiments. A further experiment was performed to find a more suitable anti-human antibody detection reagent. MoC601 HuG4K from expression supernatant was detected with three different secondary antibodies. Both anti-human IgG Fc-specific and Fab-specific detection gave higher signals than the anti-kappa chain reagent but the Fc-specific detection yielded a very low EC₅₀ (0.03 nM).

[3] = molecular target: T1, human complement protein C6; test: ELISA, C6 coated at 0.5 and 1.0 µg/ml, anti-mouse IgG (Fc-specific) HRP
Experimental: Prior to the generation of the chimeric molecules, the binding ELISA was optimised using purified mouse 1C9 antibody. The ELISA method published in Lin et al., 2020, uses human C6 protein at a concentration of 1 nM (0.12 μg/ml) to coat the ELISA plate wells. Since this is lower than the concentrations generally used, coating concentration of 0.5 μg/ml and 1.0 μg/ml were also tested. Binding of the mouse antibody (designated MoC601 MoG1K) was detected with an HRP-conjugated goat anti-mouse IgG (Fc-specific) reagent in an ELISA assay. […] This is likely to make the assay unsuitable for differentiating between the binding of different humanized variants to C6. In contrast, C6 coating concentrations of 0.5 μg/ml and 1.0 μg/ml yield results which show a clear dose-response to MoC601 MoG1K antibody, with sigmoidal-shaped curves and a consistent EC₅₀ value (0.12 nM). […] Due to lower signal variation, 1.0 μg/ml was used as the C6 coating concentration in subsequent experiments.

[4] = molecular target: T1, human complement protein C6; test: BLI (Octet RED384), antibody on anti-mouse Fc (AMC) biosensors, C6 0.27-5 nM, 1:1 fit, experiment 2
Experimental: (§1) The binding of the purified chimeric molecules, MoC601 HuG4K and MoC601 HuG1KFab, was also confirmed by ELISA, where the anti-human IgG (Fab-specific) secondary reagent was used. The control mouse antibody bound as previously (EC₅₀ 0.11 nM). The EC₅₀ for purified MoC601 HuG4K (0.27 nM) was similar to that obtained for the MoC601 HuG4K supernatant sample above. […] The EC₅₀ value for the Fab molecule (0.48 nM) was higher than for the antibody, which would be expected since the Fab is unable to bind bivalently to the antigen on the well. A C6-binding assay was also set up on the Octet RED384 instrument. […] However, MoC601 MoG1K could be stably loaded onto anti-mouse Fc (AMC) biosensors. Concentrations of the mouse and chimeric antibodies were adjusted to give similar levels of loading on to the AMC and
Protein G biosensors respectively in subsequent experiments. There was no non-specific binding of C6 protein to unloaded sensors or sensors loaded with an isotype control antibody. […] The mouse and chimeric datasets were processed by subtracting the no antigen controls and the data were fitted to a 1:1 binding model. Binding curves giving Req/Rₘₐₓ ratios>90% or showing poor fitting were excluded from analysis. A second full kinetic experiment was performed with an adjusted concentration range (six points, 0.27-5 nM) and an extended dissociation step of 20 minutes.

[5] = molecular target: T1, human complement protein C6; test: BLI (Octet RED384), antibody on anti-mouse Fc (AMC) biosensors, C6 0.16-10 nM, 1:1 fit, experiment 1
Experimental: as §1
(§2) Protein G biosensors respectively in subsequent experiments. There was no non-specific binding of C6 protein to unloaded sensors or sensors loaded with an isotype control antibody. A full kinetic experiment was run for purified MoC601 MoG1K and MoC601 HuG4K antibodies using seven concentrations of C6 (0.16-10 nM) and association and dissociation steps of 20 and 15 minutes respectively. The mouse and chimeric datasets were processed by subtracting the no antigen controls and the data were fitted to a 1:1 binding model. […]

[6] = molecular target: T1, human complement protein C6; test: BLI (Octet RED384), antibody on anti-mouse Fc (AMC) biosensors, C6 0.16-10 nM, 1:1 fit, experiment 1; experiment 1
Experimental: as §1, §2

T1 sequence (P13671 22-934 limits assumed): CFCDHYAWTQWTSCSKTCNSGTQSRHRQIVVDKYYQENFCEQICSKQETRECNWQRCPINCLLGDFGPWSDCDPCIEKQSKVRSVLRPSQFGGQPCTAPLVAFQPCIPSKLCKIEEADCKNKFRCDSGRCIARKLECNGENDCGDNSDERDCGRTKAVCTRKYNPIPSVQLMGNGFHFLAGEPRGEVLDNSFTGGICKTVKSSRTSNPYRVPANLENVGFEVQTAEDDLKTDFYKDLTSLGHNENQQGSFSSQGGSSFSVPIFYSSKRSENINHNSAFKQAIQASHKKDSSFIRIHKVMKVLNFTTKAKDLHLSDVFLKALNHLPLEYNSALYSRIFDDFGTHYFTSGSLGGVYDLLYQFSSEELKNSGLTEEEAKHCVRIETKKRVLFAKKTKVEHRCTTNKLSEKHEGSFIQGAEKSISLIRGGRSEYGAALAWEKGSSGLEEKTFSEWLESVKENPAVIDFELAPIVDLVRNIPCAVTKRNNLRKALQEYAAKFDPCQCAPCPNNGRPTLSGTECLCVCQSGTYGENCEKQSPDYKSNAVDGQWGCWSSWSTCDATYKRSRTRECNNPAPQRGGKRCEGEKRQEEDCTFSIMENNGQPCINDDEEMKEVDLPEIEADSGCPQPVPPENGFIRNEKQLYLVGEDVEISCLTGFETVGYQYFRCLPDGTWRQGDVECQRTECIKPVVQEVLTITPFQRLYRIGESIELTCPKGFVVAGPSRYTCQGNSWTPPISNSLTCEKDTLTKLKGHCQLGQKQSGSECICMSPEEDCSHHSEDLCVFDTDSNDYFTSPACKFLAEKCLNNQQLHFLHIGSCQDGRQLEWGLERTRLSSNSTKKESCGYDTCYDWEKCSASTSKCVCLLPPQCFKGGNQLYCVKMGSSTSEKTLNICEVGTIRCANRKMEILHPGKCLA

- EC50 [1]: 0.11 nM
- EC50 [2]: 0.07 nM
- EC50 [3]: 0.12 nM
- Kd [4]: 0.29 nM
- kon [4]: 690000 M⁻¹ s⁻¹
- Kd [5]: 0.42 nM
- kon [5]: 730000 M⁻¹ s⁻¹
- koff [6]: 0.00031 s⁻¹
B1: MoC601 MoG1K (mouse anti-C6 monoclonal antibody 1C9) (antibody, V domains shown)
VH: QVQLQQSGAELVKPGASVKISCKASGYAFSDYWMNWVKQRPGKGLEWIGQIYPGDDDTNYNGKFKGKATLTADKSSSTAYMQLSSLTSEDSAVYFCAREGYYGYTYVEYFDVWGTGTTVTVSS
VL: QIVLTQSPAIMSVSPGEKVTLTCSASSSVSYMHWYQQKSGTSPKRWIYDTSKLASGVPARFSGSGSGTSYSLTISSMEAEDAATYYCQQWTSNPLTFGAGTKLELR
notes: also called mAb 1C9; mouse antibody
